Measured values reported in PMC2034485 (Nucleic Acids Research, 2007).
Numbering of substitutions follows the chain as printed. Names may count otherwise. Each block holds one binder with its values, some of them ahead of it.

Experiments:
ubiquitin = ubiquitin (UniProt P0CG48 1-76); assay: SPR
human Rad6 (hHR6B) = human Rad6 (hHR6B) (human, UniProt P63146 1-152); assay: SEC
Chain of human Rad6 (hHR6B) (P63146 whole entry): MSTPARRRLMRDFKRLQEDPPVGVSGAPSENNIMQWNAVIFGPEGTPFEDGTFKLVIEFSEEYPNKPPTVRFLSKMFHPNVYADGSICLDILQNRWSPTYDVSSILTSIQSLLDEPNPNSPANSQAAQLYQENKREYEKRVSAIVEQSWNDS

Kd (ubiquitin): 42.1 µM
B1: GST-ZnF (Rad18 zinc finger domain) (domain or fragment)
chain: TLKQVTKVDCPVCGVNIPESHINKHLDSCLSREEKKES

Kd (ubiquitin): 192 µM
B2: GST-C207F ZnF (domain or fragment)
chain: B1 chain with C13F

binding result (human Rad6 (hHR6B)): binds
B3: GST-fused Rad18 (1–99), Ring domain (domain or fragment)
chain: MDSLAESRWPPGLAVMKTIDDLLRCGICFEYFNIAMIIPQCSHNYCSLCIRKFLSYKTQCPTCCVTVTEPDLKNNRILDELVKSLNFARNHLLQFALES
